Data on 9 molecules can be found in patent publication US20240043504A1 (published 2024).

T1: MERS-CoV (NCoV/Novel coronavirus) Spike Protein S1 Protein (aa 1-725, His Tag) (Sino 40069-V08B1) (MERS-CoV, UniProt K9N5Q8 18-725)
T1 sequence: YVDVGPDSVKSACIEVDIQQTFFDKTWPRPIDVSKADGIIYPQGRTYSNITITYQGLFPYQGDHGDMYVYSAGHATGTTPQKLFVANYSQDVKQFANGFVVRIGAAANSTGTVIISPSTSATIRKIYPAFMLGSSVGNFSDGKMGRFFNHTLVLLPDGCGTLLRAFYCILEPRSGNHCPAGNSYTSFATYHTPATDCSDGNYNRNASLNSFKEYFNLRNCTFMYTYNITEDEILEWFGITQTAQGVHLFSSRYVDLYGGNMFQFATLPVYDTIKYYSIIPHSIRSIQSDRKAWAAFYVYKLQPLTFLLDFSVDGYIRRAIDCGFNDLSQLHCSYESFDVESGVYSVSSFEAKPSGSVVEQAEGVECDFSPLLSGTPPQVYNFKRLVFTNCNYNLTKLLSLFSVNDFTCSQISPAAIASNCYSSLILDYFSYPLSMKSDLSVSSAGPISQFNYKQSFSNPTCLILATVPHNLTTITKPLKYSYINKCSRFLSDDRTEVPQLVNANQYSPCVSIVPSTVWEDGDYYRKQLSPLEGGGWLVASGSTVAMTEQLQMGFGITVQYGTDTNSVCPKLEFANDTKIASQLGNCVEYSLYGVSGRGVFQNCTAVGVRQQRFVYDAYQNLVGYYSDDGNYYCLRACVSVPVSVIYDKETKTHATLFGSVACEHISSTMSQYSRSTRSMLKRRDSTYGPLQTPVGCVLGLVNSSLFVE

T2: MERS-CoV Spike Protein S2 (aa 726-1296, His Tag) (Sino 40070-[change]) (MERS-CoV, UniProt K9N5Q8 726-1296)
T2 sequence: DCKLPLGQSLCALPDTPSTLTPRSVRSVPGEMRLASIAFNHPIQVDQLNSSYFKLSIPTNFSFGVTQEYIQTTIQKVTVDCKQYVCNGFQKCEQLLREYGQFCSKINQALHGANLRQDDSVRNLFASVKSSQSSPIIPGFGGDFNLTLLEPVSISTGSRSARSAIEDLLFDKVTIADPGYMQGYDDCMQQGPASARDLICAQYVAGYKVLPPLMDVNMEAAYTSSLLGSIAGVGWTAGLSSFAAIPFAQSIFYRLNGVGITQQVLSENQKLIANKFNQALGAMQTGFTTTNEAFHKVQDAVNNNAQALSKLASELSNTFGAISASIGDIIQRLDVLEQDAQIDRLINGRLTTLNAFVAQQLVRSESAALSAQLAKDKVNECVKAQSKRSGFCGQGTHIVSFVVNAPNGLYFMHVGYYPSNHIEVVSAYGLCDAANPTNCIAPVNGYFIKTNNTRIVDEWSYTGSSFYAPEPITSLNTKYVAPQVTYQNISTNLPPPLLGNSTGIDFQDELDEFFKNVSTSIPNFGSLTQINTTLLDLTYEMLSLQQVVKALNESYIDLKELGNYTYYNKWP

T3: MERS-CoV Spike Protein (ECD, aa 1-1297, His Tag) (Sino 40069-[change]) (MERS-CoV, UniProt K9N5Q8 18-1297)
T3 sequence: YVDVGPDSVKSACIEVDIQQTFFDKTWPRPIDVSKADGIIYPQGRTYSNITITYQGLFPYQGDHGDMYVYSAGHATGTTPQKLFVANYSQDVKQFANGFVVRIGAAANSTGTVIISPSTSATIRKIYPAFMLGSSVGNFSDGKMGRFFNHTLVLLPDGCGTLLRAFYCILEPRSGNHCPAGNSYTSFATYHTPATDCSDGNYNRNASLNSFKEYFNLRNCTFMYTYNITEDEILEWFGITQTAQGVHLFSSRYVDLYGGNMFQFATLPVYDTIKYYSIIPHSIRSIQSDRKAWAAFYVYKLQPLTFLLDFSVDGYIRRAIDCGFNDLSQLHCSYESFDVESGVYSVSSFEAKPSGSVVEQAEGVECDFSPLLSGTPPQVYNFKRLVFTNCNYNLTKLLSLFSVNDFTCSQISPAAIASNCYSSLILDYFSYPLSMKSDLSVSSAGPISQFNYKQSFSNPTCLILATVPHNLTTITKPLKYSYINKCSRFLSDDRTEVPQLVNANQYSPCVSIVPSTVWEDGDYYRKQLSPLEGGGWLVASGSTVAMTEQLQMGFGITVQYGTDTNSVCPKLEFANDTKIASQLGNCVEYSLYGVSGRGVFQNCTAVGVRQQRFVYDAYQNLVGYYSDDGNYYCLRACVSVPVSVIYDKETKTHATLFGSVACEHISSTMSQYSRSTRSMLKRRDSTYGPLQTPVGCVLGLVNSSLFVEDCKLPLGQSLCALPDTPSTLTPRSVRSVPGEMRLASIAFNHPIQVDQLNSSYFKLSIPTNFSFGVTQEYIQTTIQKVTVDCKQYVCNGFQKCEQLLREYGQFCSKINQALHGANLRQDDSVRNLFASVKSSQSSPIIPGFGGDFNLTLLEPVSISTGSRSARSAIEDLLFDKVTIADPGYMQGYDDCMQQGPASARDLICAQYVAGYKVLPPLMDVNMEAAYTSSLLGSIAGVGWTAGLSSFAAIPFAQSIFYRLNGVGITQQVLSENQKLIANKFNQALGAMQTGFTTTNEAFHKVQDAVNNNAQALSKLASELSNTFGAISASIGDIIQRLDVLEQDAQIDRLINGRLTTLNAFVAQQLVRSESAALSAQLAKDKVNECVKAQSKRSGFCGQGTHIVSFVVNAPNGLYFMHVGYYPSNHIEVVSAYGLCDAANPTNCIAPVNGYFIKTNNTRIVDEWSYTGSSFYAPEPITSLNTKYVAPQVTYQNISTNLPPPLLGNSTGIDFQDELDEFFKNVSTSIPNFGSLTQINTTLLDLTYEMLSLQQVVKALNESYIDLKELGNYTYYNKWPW

T4: MERS-CoV (NCoV/Novel coronavirus) Spike Protein fragment (RBD, aa 367-606, His Tag) (Sino 40071-V08B1) (MERS-CoV, UniProt K9N5Q8 367-606)
T4 sequence: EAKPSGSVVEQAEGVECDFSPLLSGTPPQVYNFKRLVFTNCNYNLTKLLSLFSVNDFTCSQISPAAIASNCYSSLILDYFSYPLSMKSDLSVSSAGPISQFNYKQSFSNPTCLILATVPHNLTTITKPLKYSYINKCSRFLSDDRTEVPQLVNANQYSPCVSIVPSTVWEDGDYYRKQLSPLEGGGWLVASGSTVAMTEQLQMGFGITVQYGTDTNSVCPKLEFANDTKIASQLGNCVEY

B1: mAb10965 (antibody, V domains shown)
VH: EVQLVESGGGLIQPGGSLRLSCAASVFTVSYNYMSWVRQAPGKGLEWVSVIYSGGSTYYADSVKGRFTISRDNSKNTLYLQMNSLRAEDTAVYYCARALPGWGGSFEYFDYWGQGTLVTVSS
VL: not shown
B2: mAb10966 (antibody, V domains shown)
VH: EVQLVESGGGLVQPGGSLRLSCAASGLTVSSNYMSWVRQAPGKGLEWVSVIYSGGSTFYADSVKGRFTISRDNSKNTLYLQMNSLRPEDTAVYYCAREGRIAATGYGMDVWGQGTTVTVSS
VL: not shown
B3: mAb10989 (antibody, V domains shown)
VH: QVQLVQSGAEVKKPGASVKVSCKASGYIFTGYYMHWVRQAPGQGLEWMGWINPNSGGANYAQKFQGRVTLTRDTSITTVYMELSRLRFDDTAVYYCARGSRYDWNQNNWFDPWGQGTLVTVSS
VL: QSALTQPASVSGSPGQSITISCTGTSSDVGTYNYVSWYQQHPGKAPKLMIFDVSNRPSGVSDRFSGSKSGNTASLTISGLQAEDEADYYCSSFTTSSTVVFGGGTKLTVLG
B4: mAb10930 (antibody, V domains shown)
VH: EVQLVESGGGLVQPGRSLRLSCAASGFTFDDYAMYWVRQAPGKGLEWVSGISWNSGSIGYADSVKGRFTISRDNAKNSLYLQMNSLRAADTALYYCAKDKDWNSRGYYYYGMDVWGQGTTVTVSS
VL: not shown
B5: mAb10937 (antibody, V domains shown)
VH: QITLKESGPTLVKPTQTLTLTCTFSGFSLSTNVVGVGWIRQPPGKALEWLALIYWNDDKRYSPSLKSRLTITKDTSKNQVVLTMTNMDPVDTATYYCAHGPTGDYFDYWGQGTLVTVSS
VL: not shown
B6: mAb10984 (antibody, V domains shown)
VH: EVQLVESGGGLVQPGGSLRLSCAASGLTVNRNYMSWVRQAPGKGLEWVSLIYSGGSTYYADSVKGRFTISRDNSKNTLYLQMNSLRLEDTAVYYCARGELGIPYGMDVWGQGTTVTVSS
VL: QSVLTQPPSVSAAPGQKVTISCSGSSSNIGNNYVSWYQQLPGTAPKLLIYDNNKRPSGIPDRFSGSKSGTSATLGITGLQTGDEADYYCGTWDSSLSAGVFGGGTKLTVLG
B7: mAb10920 (antibody, V domains shown)
VH: QVQLVESGGGVVQPGRSLRLSCAASGFTFSYYGMHWVRQAPGKGLEWVAVIWYDGSNKFYADSVKGRFTISRDNSKNTLYLQMNSLRAEDTAVYYCAAARPGYYYGMDVWGQGTTVTVSS
VL: DIQMTQSPSSLSASVGDRVTITCRASQGISNYLAWFQQKPGKAPNSLIYAASSLQRGVPSKFSGSGSGTDFTLTISSLQPEDFATYYCQQYNSYPRTFGQGTKVEIKR
B8: mAb10923 (antibody, V domains shown)
VH: QVQLVQSGAEVKKPGASVKVSCKASGYTFINYYIHWVRQAPGQGLEWMGWINPNSGGTNYAQKFQGRVTMTRDTSISTAYMELSRLRSDDTAVYYCAIITIFGVVTWFDPWGQGTLVTVSS
VL: not shown
B9: mAb10938 (antibody, V domains shown)
VH: EVQLVESGGGLVQPGGSLRLSCAVSGFTVSSNYMSWVRQAPGKGLEWVSLIYSGGSTFYADSVKGRFTISRHNSKNTLYLQMNSLRAEDTAVYYCAREGGYSYDYNYWGQGTLVTVSS
VL: DIQMTQSPSSLSASVGDRVTITCQASQDIRNYLNWYQQKPGKAPKLLIYDASNLETGVPSRFSGIGSGTDFTFTISSLQPEDIATYYCQQYDNLPITFGQGTRLEIKR

The target in the first assay is Human SARS Coronavirus Spike S1 Subunit Protein (His Tag) (Sino 40150-V08B1) (Human SARS Coronavirus, UniProt P59594 14-667). The experiment in a line: Luminex bead binding, supernatant.
Consider B1, for which the “Binding signal (MFI)” value was 16 MFI.

In the case of B2, the “Binding signal (MFI)” value is 20 MFI.

As for B3, the “Binding signal (MFI)” value was 21 MFI.

A further assay concerns the target T1, MERS-CoV (NCoV/Novel coronavirus) Spike …. The experiment in a line: Luminex, supernatant.
On to B4, for which the MFI was 22 MFI.

Turning to B5, the MFI came out at 22 MFI.

Molecule B6 came in with an MFI of 20 MFI.

B7: the MFI is 27 MFI.

On to B8, for which the MFI came to 25 MFI.

Molecule B9 showed an MFI of 20 MFI.

In a further assay the target is T2, MERS-CoV Spike Protein S2 (aa 726-1296, …). The experiment in a line: Luminex, supernatant.
B4 returned an MFI of 20 MFI.

On to B5, for which the MFI was 26 MFI.

In turn, B6 registered an MFI of 25 MFI.

B7: the MFI was determined as 30 MFI.

In turn, B8 had an MFI of 36 MFI.

In turn, B9 returned an MFI of 19 MFI.

The next assay has as its target SARS-CoV-2 Spike Protein (RBD)(R319-F541).hFc (SARS-CoV-2). The assay can be described thus: Luminex, supernatant.
In the case of B4, the MFI was 28900 MFI.

As to B5, the MFI came to 34600 MFI.

For B6, the MFI worked out at 28400 MFI.

With B7, the MFI was determined as 36800 MFI.

Molecule B8 had an MFI of 37800 MFI.

Molecule B9 displayed an MFI of 29600 MFI.

Another assay deals with T3, MERS-CoV Spike Protein (ECD, aa 1-1297, …). The assay can be described thus: Luminex, supernatant.
With B4, the MFI came to 16 MFI.

As for B5, the MFI is 19 MFI.

The molecule B6 registered an MFI of 21 MFI.

B7 displayed an MFI of 24 MFI.

For the molecule B8, the MFI is 23 MFI.

B9 displayed an MFI of 16 MFI.

The next assay has as its target Human SARS Coronavirus Spike S1 Subunit Protein (His Tag) (Sino 40150-V08B1) (Human SARS Coronavirus, UniProt P59594 14-667). The assay can be described thus: Luminex, supernatant.
Turning to B4, the MFI stood at 19 MFI.

As to B5, the MFI amounted to 21 MFI.

Molecule B6 returned an MFI of 22 MFI.

B7: the MFI amounted to 26 MFI.

On to B8, for which the MFI was found to be 29 MFI.

Consider B9, for which the MFI is 19 MFI.

The target in another assay is SARS-CoV-2 Spike Protein (RBD)(R319-F541).mFc (SARS-CoV-2). The assay can be described thus: Luminex, supernatant.
B4 came in with an MFI of 28600 MFI.

On to B5, for which the MFI was determined as 34200 MFI.

Regarding B6, the MFI amounted to 28400 MFI.

Regarding B7, the MFI is 36400 MFI.

On to B8, for which the MFI is 37400 MFI.

Molecule B9 had an MFI of 30500 MFI.

Another assay concerns the target T4, MERS-CoV (NCoV/Novel coronavirus) Spike …. The experiment in a line: Luminex, supernatant.
In turn, B4 yielded an MFI of 27 MFI.

In turn, B5 gave an MFI of 27 MFI.

As to B6, the MFI came to 29 MFI.

B7 came in with an MFI of 39 MFI.

In the case of B8, the MFI was 37 MFI.

In the case of B9, the MFI came to 25 MFI.
